Test results from the supplement of paper PMC7877785.
± gives the uncertainty stated by the source.

Experiment: self-splicing fitness, log relative to wild type (ln ratio); higher = more splicing; Tetrahymena group I intron in knt gene, E. coli kanamycin selection, DiMSum; sequences stand for … in CUCUCU…GGAGGGAAAAGUUAUCAGGCAUGCACCUGGUAGCUAGUCUUUAAACCAAUAGAUUGCAUCGGUUUAAAAGGCAAGACCGUCAAAUUGCGGGAAAGGGGUCAACAGCCGUUCAGUACCAAGUCUCAGGGGAAACUUUGAGAUGGCCUUGCAAAGGGUAUGGUAAUAAGCUGACGGACAUGGUCCUAACCACGCAGCCAAGUCCUAAGUCAACAGAUCUUCUGUUGAUAUGGAUGCAGUUCACAGACUAAAUGUCGGUCGGGGAAGAUGUAUUCUUCUCAUAAGAUAUAGUCGGACCUCUCCUUAAUGGGAGCUAGCGGAUGAAGUGAUGCAACACUGGAGCCGCUGGGAACUAAUUUGUAUGCGAAAGUAUAUUGAUUAGUUUUGGAGUACUCGUGGUCG
Summary of the method: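 A randomised library covering all eight P1ex-region intron nucleotides was built with the intron in the knt kanamycin-resistance gene on pET-22b(+) and held in E. coli BL21(DE3). Cells were grown overnight at 37°C or 30°C on LB agar, with or without 25 μg/mL kanamycin, plus 100 μg/mL carbenicillin, 50 μM IPTG and 0.2% rhamnose, and pooled colonies were amplicon-sequenced on an Illumina HiSeq 2500. DiMSum fitness is the error-weighted combination of wild-type-normalised replicate fold changes, kanamycin versus none.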

| Sequence | self-splicing fitness (ln) (30 °C) | self-splicing fitness (ln) (37 °C) |
| --- | --- | --- |
| CUUUAGCAAUAUUACGGUCG | -0.496 ± 0.055 | -0.259 ± 0.083 |
| CUUUAGCAAUAUUACGUAAU | -2.49 ± 0.16 | -2.78 ± 0.33 |
| CUUUAGCAAUAUUACGUAGA | -2.52 ± 0.22 | -2.53 ± 0.33 |
| CUUUAGCAAUAUUACGUCAC |  | -0.481 ± 0.4 |
| CUUUAGCAAUAUUACGUCCG | -0.0797 ± 0.084 | -0.326 ± 0.099 |
| CUUUAGCAAUAUUACGUCCU |  | -1.9 ± 0.31 |
| CUUUAGCAAUAUUACGUCGU | -2.27 ± 0.36 | -3.05 ± 0.37 |
| CUUUAGCAAUAUUACGUCUG | -0.534 ± 0.094 | -0.218 ± 0.12 |
| CUUUAGCAAUAUUACGUGUC | -2.98 ± 0.21 | -1.55 ± 0.17 |
| CUUUAGCAAUAUUACGUUAC | -3.92 ± 0.34 | -1.74 ± 0.29 |
| CUUUAGCAAUAUUACGUUGU | -3.88 ± 0.17 | -3.45 ± 0.21 |
| CUUUAGCAAUAUUACGUUUA | -3.03 ± 0.24 | -1.64 ± 0.17 |
| GAAAAGCAAUAUUACGAAAG | -3.5 ± 0.15 | -1.9 ± 0.14 |
| GAAAAGCAAUAUUACGAAUU | -1.37 ± 0.11 | -0.667 ± 0.12 |
| GAAAAGCAAUAUUACGACUC | 0.143 ± 0.2 | -0.00506 ± 0.28 |
| GAAAAGCAAUAUUACGAGCU | -0.618 ± 0.069 | -0.352 ± 0.091 |
| GAAAAGCAAUAUUACGCACA | -0.807 ± 0.093 | -0.0907 ± 0.14 |
| GAAAAGCAAUAUUACGCCGC | -2.23 ± 0.25 |  |
| GAAAAGCAAUAUUACGCGAU | -2.88 ± 0.28 | -2.32 ± 0.33 |
| GAAAAGCAAUAUUACGCGCC | -2.06 ± 0.16 | -1.25 ± 0.17 |
| GAAAAGCAAUAUUACGCGGA | -2.25 ± 0.14 | -0.603 ± 0.13 |
| GAAAAGCAAUAUUACGCUUC | -3.71 ± 0.12 | -2.77 ± 0.14 |
| GAAAAGCAAUAUUACGGACU | 0.147 ± 0.069 | 0.272 ± 0.087 |
| GAAAAGCAAUAUUACGGAUA | -1.32 ± 0.13 | -1.18 ± 0.12 |
| GAAAAGCAAUAUUACGGCUU | -0.227 ± 0.082 | 0.0447 ± 0.096 |
| GAAAAGCAAUAUUACGGGAC | -1.06 ± 0.12 | -2.06 ± 0.18 |

| Sequence | self-splicing fitness (ln) (30 °C) | self-splicing fitness (ln) (37 °C) |
| --- | --- | --- |
| GAAAAGCAAUAUUACGGGAU | -2.18 ± 0.14 | -1.26 ± 0.12 |
| GAAAAGCAAUAUUACGGGCC | -1.09 ± 0.14 | -1.37 ± 0.17 |
| GAAAAGCAAUAUUACGGGGG | -3.11 ± 0.21 | -1.15 ± 0.17 |
| GAAAAGCAAUAUUACGGGGU | -3.91 ± 0.26 | -2.32 ± 0.23 |
| GAAAAGCAAUAUUACGGGUG | -2.23 ± 0.079 | -1.18 ± 0.1 |
| GAAAAGCAAUAUUACGUAGC | -2.66 ± 0.15 | -1.51 ± 0.15 |
| GAAAAGCAAUAUUACGUAUG | -1.6 ± 0.079 | -1.74 ± 0.12 |
| GAAAAGCAAUAUUACGUCCA | -0.703 ± 0.064 | 0.0901 ± 0.089 |
| GAAAAGCAAUAUUACGUCCC | -0.229 ± 0.17 | 0.0916 ± 0.2 |
| GAAAAGCAAUAUUACGUGAC | -4.06 ± 0.34 | -1.17 ± 0.17 |
| GAAAAGCAAUAUUACGUUAG | -2.27 ± 0.12 | -1.85 ± 0.14 |
| GAACAGCAAUAUUACGAUAU | -1.36 ± 0.061 | -0.525 ± 0.074 |
| GAACAGCAAUAUUACGAUCA | -0.605 ± 0.089 | -0.214 ± 0.11 |
| GAACAGCAAUAUUACGAUUA | -0.501 ± 0.11 | -0.296 ± 0.098 |
| GAACAGCAAUAUUACGCACG | -1.38 ± 0.18 | 0.123 ± 0.13 |
| GAACAGCAAUAUUACGCACU | 0.254 ± 0.079 | 0.0329 ± 0.11 |
| GAACAGCAAUAUUACGCCCA | 0.617 ± 0.17 | -0.316 ± 0.24 |
| GAACAGCAAUAUUACGCCGC |  | -2.35 ± 0.34 |
| GAACAGCAAUAUUACGCCUC | -1.81 ± 0.17 | -1.89 ± 0.26 |
| GAACAGCAAUAUUACGCGUU | -3.27 ± 0.12 | -2.69 ± 0.14 |
| GAACAGCAAUAUUACGCUCG | -0.797 ± 0.1 | -0.128 ± 0.15 |
| GAACAGCAAUAUUACGGACA | -1.3 ± 0.1 | -0.732 ± 0.09 |
| GAACAGCAAUAUUACGGACC | -0.915 ± 0.12 | 0.0387 ± 0.14 |
| GAACAGCAAUAUUACGGGGA | -1.6 ± 0.087 | -0.774 ± 0.09 |
| GAACAGCAAUAUUACGGGUC | -2.3 ± 0.19 | -3 ± 0.27 |
| GAACAGCAAUAUUACGGUCG | -1.17 ± 0.069 | -0.372 ± 0.098 |

| Sequence | self-splicing fitness (ln) (30 °C) | self-splicing fitness (ln) (37 °C) |
| --- | --- | --- |
| GAACAGCAAUAUUACGGUCU | -1.16 ± 0.086 | -0.205 ± 0.095 |
| GAACAGCAAUAUUACGUCUG | -2.54 ± 0.079 | -0.775 ± 0.077 |
| GAACAGCAAUAUUACGUGAA | -0.968 ± 0.061 | -0.396 ± 0.069 |
| GAACAGCAAUAUUACGUUUG | -2.2 ± 0.067 | -0.632 ± 0.075 |
| GAAGAGCAAUAUUACGAAUU | -3.24 ± 0.18 | -2.21 ± 0.23 |
| GAAGAGCAAUAUUACGACCU | -1.45 ± 0.13 | -0.296 ± 0.18 |
| GAAGAGCAAUAUUACGACUU | -0.765 ± 0.12 | 0.131 ± 0.14 |
| GAAGAGCAAUAUUACGAGCC | -1.61 ± 0.24 | -0.252 ± 0.36 |
| GAAGAGCAAUAUUACGAUAC | -2.75 ± 0.39 |  |
| GAAGAGCAAUAUUACGAUGA | -3.03 ± 0.31 | -1.57 ± 0.17 |
| GAAGAGCAAUAUUACGCACA | -1.91 ± 0.16 | -1.07 ± 0.14 |
| GAAGAGCAAUAUUACGCAUU | -4.28 ± 0.2 | -2.2 ± 0.2 |
| GAAGAGCAAUAUUACGCCGC | -2.05 ± 0.47 |  |
| GAAGAGCAAUAUUACGGACC | -1.57 ± 0.14 | -0.884 ± 0.19 |
| GAAGAGCAAUAUUACGGGAA | -3.54 ± 0.47 | -1.72 ± 0.28 |
| GAAGAGCAAUAUUACGGGGC | -3.46 ± 0.28 | -2.28 ± 0.26 |
| GAAGAGCAAUAUUACGGGUC | -1.86 ± 0.27 |  |
| GAAGAGCAAUAUUACGGGUU | -3.11 ± 0.2 | -2.22 ± 0.2 |
| GAAGAGCAAUAUUACGGUAA | -2.16 ± 0.29 | -1.01 ± 0.24 |
| GAAGAGCAAUAUUACGGUAG | -3.51 ± 0.17 | -3.01 ± 0.22 |
| GAAGAGCAAUAUUACGGUGA | -2.47 ± 0.16 | -1.02 ± 0.096 |
| GAAGAGCAAUAUUACGUCGC | -2.58 ± 0.28 | 0.595 ± 0.21 |
| GAAGAGCAAUAUUACGUGCG | -2.87 ± 0.15 | -2.03 ± 0.17 |
| GAAGAGCAAUAUUACGUGCU | -3.52 ± 0.22 |  |
| GAAGAGCAAUAUUACGUUAA | -2.65 ± 0.22 | -1.65 ± 0.2 |
